The results in this text go back to PMC10922747 (Cell, 2024).

As usually defined, the stoichiometry N is a count of units in the complex or per binding partner.

Data set [1] deals with the molecule itself. The experiment in a line: cryo-EM structure.
Data set [2] deals with the molecule itself. The experiment in a line: negative-stain EM.

B1: mouse PNMA2 (mPNMA2) protein (full length) (natural protein, UniProt Q8BHK0 1-365, looked up)
chain: MAVALLEEWCKIMGVDVQKSLLVVDIPVDCGEPEIQTVLQEALKCVGSYRLLGKIFQKQDNTSVVLVELMEDTDMSVVPSEVQGKGGVWKVIFKTPNQDTEFLQRLNLFLEKEGQTVAGMFRALKHEGVSPATPPCTSPELLAHLTGQAMVHGQRPLLPVKYCKMRIFSGSTAAAPEEEPFEVWLEQATEIAKEWPIPEAEKKRWVAESLRGPALDLMHIVQADNPSISVGECLEAFKQVFGSTESRRTSQVKYLRTYQQEGEKISAYVLRLETLLRRAVEKRAIPRNIADQVRLEQVMAGANLGNVLWCRLQELKDQGPLPTFLQLMKVIREEEEEEDAYFEQESREEPGEREGSGCWNNSRNN
In the case of B1, the “stoichiometry N” value in data set [1] is 60.

B2: human PNMA2 (hPNMA2) protein (full length) (natural protein, UniProt Q9UL42 1-364, looked up)
chain: MALALLEDWCRIMSVDEQKSLMVTGIPADFEEAEIQEVLQETLKSLGRYRLLGKIFRKQENANAVLLELLEDTDVSAIPSEVQGKGGVWKVIFKTPNQDTEFLERLNLFLEKEGQTVSGMFRALGQEGVSPATVPCISPELLAHLLGQAMAHAPQPLLPMRYRKLRVFSGSAVPAPEEESFEVWLEQATEIVKEWPVTEAEKKRWLAESLRGPALDLMHIVQADNPSISVEECLEAFKQVFGSLESRRTAQVRYLKTYQEEGEKVSAYVLRLETLLRRAVEKRAIPRRIADQVRLEQVMAGATLNQMLWCRLRELKDQGPPPSFLELMKVIREEEEEEASFENESIEEPEERDGYGRWNHEGDD
For B2, the binding result in data set [2] is on record as “binds”.
